Experimental data from ChEMBL document CHEMBL2073843, “Characterization of the role of polar amino acid residues within predicted transmembrane helix 17 in determining the substrate specificity of multidrug resistance protein 3” (Biochemistry, 2003).

Substrate: C[C@]12CC[C@@H]3c4ccc(O)cc4CC[C@H]3[C@@H]1CC[C@@H]2O[C@@H]1O[C@H](C(=O)O)[C@@H](O)[C@H](O)[C@H]1O
Details: HEK293; Membrane vesicle
Description: TP_TRANSPORTER: uptake in membrane vesicles from MRP3-expressing HEK cells

B1: Multidrug resistance associated protein (Homo sapiens), Q96QA9 (protein)
chain: MDALCGSGELGSKFWDSNLSVHTENPDLTPCFQNSLLAWVPCIYLWVALPCYLLYLRHHCRGYIILSHLSKLKMVLGVLLWCVSWADLFYSFHGLVHGRAPAPVFFVTPLVVGVTMLLATLLIQYERLQGVQSSGVLIIFWFLCVVCAIVPFRSKILLAKAEGEISDPFRFTTFYIHFALVLSALILACFREKPPFFSAKNVDPNPYPETSAGFLSRLFFWWFTKMAIYGYRHPLEEKDLWSLKEEDRSQMVVQQLLEAWRKQEKQTARHKASAAPGKNASGEDEVLLGARPRPRKPSFLKALLATFGSSFLISACFKLIQDLLSFINPQLLSILIRFISNPMAPSWWGFLVAGLMFLCSMMQSLILQHYYHYIFVTGVKFRTGIMGVIYRKALVITNSVKRASTVGEIVNLMSVDAQRFMDLAPFLNLLWSAPLQIILAIYFLWQNLGPSVLAGVAFMVLLIPLNGAVAVKMRAFQVKQMKLKDSRIKLMSEILNGIKVLKLYAWEPSFLKQVEGIRQGELQLLRTAAYLHTTTTFTWMCSPFLVTLITLWVYVYVDPNNVLDAEKAFVSVSLFNILRLPLNMLPQLISNLTQASVSLKRIQQFLSQEELDPQSVERKTISPGYAITIHSGTFTWAQDLPPTLHSLDIQVPKGALVAVVGPVGCGKSSLVSALLGEMEKLEGKVHMKGSVAYVPQQAWIQNCTLQENVLFGKALNPKRYQQTLEACALLADLEMLPGGDQTEIGEKGINLSGGQRQRVSLARAVYSDADIFLLDDPLSAVDSHVAKHIFDHVIGPEGVLAGKTRVLVTHGISFLPQTDFIIVLADGQVSEMGPYPALLQRNGSFANFLCNYAPDEDQGHLEDSWTALEGAEDKEALLIEDTLSNHTDLTDNDPVTYVVQKQFMRQLSALSSDGEGQGRPVPRRHLGPSEKVQVTEAKADGALTQEEKAAIGTVELSVFWDYAKAVGLCTTLAICLLYVGQSAAAIGANVWLSAWTNDAMADSRQNNTSLRLGVYAALGILQGFLVMLAAMAMAAGGIQAARVLHQALLHNKIRSPQSFFDTTPSGRILNCFSKDIYVVDEVLAPVILMLLNSFFNAISTLVVIMASTPLFTVVILPLAVLYTLVQRFYAATSRQLKRLESVSRSPIYSHFSETVTGASVIRAYNRSRDFEIISDTKVDANQRSCYPYIISNRWLSIGVEFVGNCVVLFAALFAVIGRSSLNPGLVGLSVSYSLQVTFALNWMIRMMSDLESNIVAVERVKEYSKTETEAPWVVEGSRPPEGWPPRGEVEFRNYSVRYRPGLDLVLRDLSLHVHGGEKVGIVGRTGAGKSSMTLCLFRILEAAKGEIRIDGLNVADIGDPILFSGTLRMNLDPFGSYSEEDIWWALELSHLHTFVSSQPAGLDFQCSEGGENLSVGQRQLVCLARALLRKSRILVLDEATAAIDLETDNLIQATIRTQFDTCTVLTIAHRLNTIMDYTRVLVLDKGVVAEFDSPANLIAARGIFYGMARDAGLA
B1 gave a Km of 29 µM.
